According to the nanobody polyreactivity screen of Harvey et al. (2022):

Experiment: yeast display, Sf9 membrane polyspecificity reagent, FACS + sequencing; frameworks hold sequencing errors
Outline: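 A synthetic nanobody library was expressed on Saccharomyces cerevisiae BJ5465 by galactose induction for 36–48 hours. The library was stained for 1 hour at 4 °C with 10% biotinylated, detergent-solubilized Sf9 membrane reagent and enriched with streptavidin microbeads before FACS. Low and high (top ~1%) gates were set on anti-HA fluorescence for expression and streptavidin fluorescence for reagent binding, and each polyreactivity label reflects the gate of origin.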

Sequence | polyreactivity (PSR sort gate)
QVQLVESGGGLVQAGGSLRLSCAASGSTLAKYAMGWYRQAPGKERELVAAISRSGGRTYYADSEKGRFTISRDNAKNSVYLQMNSLKPEETAVYYCAARARSSRTYHDDYWGQGTQVTVSS | high polyreactivity
QVQLVESGGGLVQAGGSLRLICAASGRIFRYNARGWYRQAPGKERELVAAISSGGSTNYADSVKGRFTTSRDNAKNTVYLQMNSLKPEDTAVYYCNAESVHRYPGWGYDYWGQGTQVTVSS | low polyreactivity
QVQLVESGGGLVQAGGSLRISCAASGSTLGYYAMGWYRPAPAKESELVAAISRGGGSTYYADSVKGRFTISRDNAKNTVYLQMNSLKPEVTAVYYCNKYFAYGDFDYWGQGTQVTVSS | high polyreactivity
QVQLVESGGGLDQAGGSLRLSGAASGRILWYNAMGWYRQAPGKERELVAAISWTGGSTYYADSVKGRFTISRDNAKNTVYLQMNSLKPEDTAVYYCNVDTPYTQGFDQRQGYTFDYWGQGTQVTVSS | low polyreactivity
QVQLVESVGGLVQAGGSLRLSCSASGSTFTGYAMGWYRQARGNEREFVATITKRGGRTYYADSVKGRFTISRDNAKNTVYLQMNSLKPEDSAVYYCARDQGKLFVPYDYWGKGTQVTVSS | high polyreactivity
QDQHVESGGGLVQAGGSLRLSCAASGRTFAGYAMGWYRQAPGKERELVATISGRGGSTSYADSVKGRFTISRDNAKNTVYLQMNSLIPEDTAVYYCAKASWYKYKYDYWGQGTQVTVSS | high polyreactivity
QVQLVESGGGLVQAGGTLRLSCAPSGSIFGDYVMGWYRQAPGKEWELVAAINRGGSTYYADSVKGRFTISRDNAKNTVYLQMKSLKPEDTAVYYCAAGYPSWYYGYPYDSWGQGTQVTVSS | low polyreactivity
QVQLVESGGGFVQAGGSLRLSCAASGSIFSVNTMGWYRQAPGKERELVATIRTGDSTNYADSVTGRFTISRDNAKNTVYLQMNSLKPEDTAVDYCAAEWSSLNFDYWGQGTQVTVSS | low polyreactivity
QVQLVESGGGLVQAGGSLRLSCAASGYILIYNAMGWYRQAPGTERELVAAINYRGDRTYYADSVKGRFTISRDNAKNTVYLQMNSLKPEDTAVYYCAKDYPYYGRYYRYPYDSWGQGTQVTVSS | high polyreactivity
QVQLVDSGGGLVQSGGILRLSCAASGRTFRYYAMGSYRQAPGKERELVAAISSGGSTNYADSVKGRFTISRDNAKNTVYLQMNSLKPEDTAVYYCAALWSGNKFKYWGQGSQVTVSS | low polyreactivity
QVQLVESGGGLVQAGGSLRLSCAASGRIFGAYAMGWYRPAPGKERELVAAITGGDSTYYADSVKGRFTISRDNAKNTVYLQMNSLKPEDTAVYYCAADLTPEGVLQLGKYINYDSWGQGTQVTVSS | low polyreactivity
QVQLVESGGGLVQAGGSLRLSCAASGSIFSIYAMGWYRQAPWKERELVAAITWGGGSTYYADSVKGRFTISRDNAKNTVYVQMNSLKPEDTAVYYCAADSLTWYGTYYYWGQGTQVTVSS | high polyreactivity
QVQLVESGGGLVQAGGSLRLSCAASGFTFNKYAMGCYRQAPGKERELVAAISGSGGRTYYADSVKGRFTISRDNAKNTVYLQMNSLKPEDTAVYYCAAQRSVKVDYWGQGTQVTVSS | high polyreactivity
QVQLVESGGGLVQAGGSLRLSCAASGRTFYYYTMGWYRQAPGKERELVAAITHGGSTYYADSVKGRFTISRDNAKNTVYLQMNSLKPEDTAVYYCNAVYHYPYEYWGQGTQVTVSS | high polyreactivity
QVQLVESGGGLVQAGGSLRLSCAASGSIFYNYAMGWYRQAPGKERELVATITRSDGSTYYADSVKGRFTISRENAKNTVYLQMNSLKPEDTAVYYCAADSGSTSEYEYWGQGTQGTVSS | low polyreactivity
QVQLVESGGGLVQAGGSLRLSCAASGFIFVDYAMGWYRQAPGKERELVAAISSSGSTTYADSVKGRFTISRDNAKNIVYLKMNSLKPEDTAVYYCAAGLPRVLKDATFDYWGQGTQVTVSS | low polyreactivity
QVQLVESGGGLVQAGGSLRLRCAASGTTTSNNSMGWYRQAPGKERELVADMSTNGDSTSYADSVKGRYTISRDNAKNTVYLQMNSLKPVDTAVYYCAASTYVTYWEYDYWGQGTQVTVSS | low polyreactivity
QVQLVDSGGAVVQAGGSLRLSCAASGYTFYRYAMGWYRQAPGKERELVAAMSRRGTRTYYADSVKGRFTISRDNAKNTVYLQMNSLKPEDTAVYFCNARRVRDVWWQLKRGDYWGQATQVTVSS | high polyreactivity
QVQLVESGGGLVQAGGSLRLSCAASGIIFPEYDRGWYRQAPGKERELVAAITKSDGRTYYADSVKGRFTISRDNAKNTVYLQMNSLKPEDTAVYYCNADPRVVAYLGFDSWGQGTQVTVSS | low polyreactivity
QVQLVESGGGLVQAGGSLRLSSAASGFTFASYAMGWYRQAPGKERELVAAIDSDDSTNYADSVKGRFTISRDNAKNTVYLHMNSLKPEDTSVYYCAADEGPYYGIYEYYYWGQGTQVTVSS | high polyreactivity
QVHLVESGGGLVQAGGSLRLSCAASGSTFRKYAMGWYRKAPGKERELDAAITSSGGRTYYADSVKGRFTISRDNAKNSVYLPLNSLKPEDTAVYYCAAGGPRFYSWRSEYDYWGQGTQVTVLS | high polyreactivity
QVQLVESGGGLVQAGGSLRLSCAASGITFSTYAMGWYRQAPGKERELVAAINWSGGSTRYADSVKGRFTISRDNAKNTVYLQMNSLKPEDTAVYYCAAEVQGQVGEFDYWGQGTQVTVSS | low polyreactivity

Sequence | polyreactivity (PSR sort gate)
QVQLVESGGGLVQAGGSLRLSCAASGRIYRDYAMGWYRQAPGKERELVATITWSGATTYYADSVKGRFTISRDNAKNTVYLQMNSLKPEDTAVYYCAKVYPRFYTFGEYNYWGQGTQVTVSS | low polyreactivity
QVQLVESGGGLVQAGGSLRLSCAASGRTIRLYGMGSYRQAPGKERELVAAITWSGGRTYYADSVKGRFTISRDNEKNTFYLQMNSLKPEDSAVYYCAAGNSSYGKPKYYYWGQGTQVTVSS | high polyreactivity
QVQLVESGGGLVQAGGSLRLSCAASGSTFLYYTMGWYRPAPGKERELVAAITSGGDTNYPDSVKGRFTISRDNAKNTVYLQMNSLKPEDTAVYYCNAEYTLSGTKIYTYKYDYRGQGTQVTVSS | low polyreactivity
QVQLVESGGGLVQAGGSLRLSCAASGSTLYYNAMGWYRQAPGKERELVAAISWSGGSTYYADSVKGRFTISRDNAKNTVYLQMNSLKPEDTAVYYCAADQSTVLDVGSWGQGTQVTVSS | low polyreactivity
QVQLVESGGGLVQAGGSLRLSCAASGLIFKVYAMGWYRQAPGKEWELVAAITYSGGSTDYADSVKGRFTISRDNAKNTVNLQMNSLKPEDTAVYYCNVEKVGHVNSYGYDYWGQGTQVTVSS | low polyreactivity
QVQLVESGGGLDQAGGSLRLICAASGLTFPYYARGWSIQAPGKEMEVVAGITDDGGDTYYADSVKGRLTISRDYAKNTVYLQMNSLKPEDTAVYFCAADGWFQGWFGYGYWGQGTQVTVSS | high polyreactivity
QVQLVESGGGLVQAGGSLRLSCAASGSTFIGSDMGWYRQAPGKERELVAAISYSDGTYYADSVKGRFTISRDNAKNTVYLQMNSLKPEDTAVYYCATSYRDIGSHVGYWGQGTQVTVSS | low polyreactivity
QVQLVESGGGLVQAGGSLRLSCAASGSTFRSNAMGWYRQAPGKERELVAAIRYSGGSTYYADSVKGRFTISRDNAKNTVYLQMNSLKQEDTAVYYCATRFRTYYVDHGYWGQGTQVTVSS | high polyreactivity
QVQLVESGGGLVQAGGSLRLSCAASGSILGPNAMGWYRQAPGKERELVARISTSGGSTYYADSVKGRFTISRDNAKNTVYLQMNSLKPEDTAVYYCATGLVWWRSPYDYWGQGTQVTVSS | high polyreactivity
QVQLVETGGGLVQAGGSLRLSCAASGSSFGSYAMGWYREAPGKERELVAAISSSGASTYYADSVKGRFTISRDNAKITVYLQMNSLKPEDTAVYYCNAARRYPTRGGYWGQGTQVTVSS | high polyreactivity
QVQLVESGVGLVQAGGSLRLSCAASGSTFGGNAMGWYRQAPGKEREKVADITFSGGSTSYADSVKGRFTISRDNAKKTVYLQMNSLKPEDTAVYYCNRDYPEIIVAGLDYWGQGSQVTVSS | low polyreactivity
QVQLVESGGGLVQAGGSLRLCCAASGSTFYYYAMGWYRQAPGKVRELVASITTGGGSTYYADSVKGRFTISRDNAKNTVYLQMNSLKPEDTAVSYCAAALAYYYWWYDYWGQGTQVTASS | low polyreactivity
QVQLVESGGGLVQAGGSLRLSCAASGRIFVKYTMGWYRQAPGKERELVAAIDFDTDSTYYADSVKGRFTISRDNAMNTVYLQMNSLKPEDTAVYYCAADQYYYWYTHQSIGYDYWGQGTQVTVSS | low polyreactivity
QVQLVESGGGLVQAGGSLRLSCAASGFTFDSYAMGWYRQAPGKERELVAAMSYRGGTTYYADSVKGRFTISRDNAKNTGYLQMNSLKPEDTAVYYCNRLWKYGYNYWGQGTQVTVSS | high polyreactivity
QVQLVESVGGLVQAGGSLRLSCAASGRTFTGNAMGWYRQAPGKERELVAAISQRGGRTNYADSVKGRFTISRDNAKNTVYLQMNSLKPEDTAVYYCAADQSYPKRLPSFEYWGQGTQVTVSS | low polyreactivity
QVQLVESGGGLVQAGGSLRLSCAASGRTLYINAMGWYRQAPGKERELVAAIRRGGSTYADSVKGRFTISRDNAKNTVYLQMNSLKPEDTAVYYCAADVPRGKYKGDYWGQGTQVTVSS | high polyreactivity
QVQLVESGGGLVQAGGSLRLSCAASGFIFYDYAMGWYRQAPGKERELVASISWSSGSTYYADSVKGRFTISRDNAKNTVYLQMNSLKPEDTAVYYWAADGYPLQLYNYWGLGTQVTVSS | low polyreactivity
QVQLVESGGGLVQAGRSLRLSCAASGSTFSWNTMGWYRPAPGIERELVAAINSGGSTYYADSVKGRFTISRDNAKNTVYLQMNSLKPEDTAFYYCAARTKYYGRFDYWGQGTQVTVCS | low polyreactivity
QVQLVESGGGLVQAGGSLRLSSAASGFIFGAYAMGWYRQAPGKERELVAANSSRGGNTYYADSVKGRFTISRDNAKNTVYLQMNSLKPEDPAVYDCNAVGYAPYLYVPPPYEYWGQGTQVTVSS | high polyreactivity
QVQLVESGGGLVQAGGSLRLSCAASGRTFIVNTMGWYRQAPGKERELVAAITARGGRTYYADSVKGRFTISRDNAKNTVYLQMNSLIPEDTAVYYCNASTPPREAERYYWGQGTQVTVSS | low polyreactivity
QVQLVESGGCLVQAGGSLRLSCAASGSTFRFYAMGWYRQAPGKERELVATISSSGGTTYYADSVKGRFTISRDNAKNTVYLQMNSLKPEDTAVSYCAKDAFGWGRVYYYRSGYWGHGTQVTVSS | high polyreactivity
